# From FireProtDB
# Values joined by “and” are separate entries in the source; they are usually repeats but may differ in a detail not shown here. Equal values may be shown once.
# B1: PTS system mannose-specific EIIAB component wild type, P69797 (protein)
# chain: MTIAIVIGTHGWAAEQLLKTAEMLLGEQENVGWIDFVPGENAETLIEKYNAQLAKLDTTKGVLFLVDTWGGSPFNAASRIVVDKEHYEVIAGVNIPMLVETLMARDDDPSFDELVALAVETGREGVKALKAKPVEKAAPAPAAAAPKAAPTPAKPMGPNDYMVIGLARIDDRLIHGQVATRWTKETNVSRIIVVSDEVAADTVRKTLLTQVAPPGVTAHVVDVAKMIRVYNNPKYAGERVMLLFTNPTDVERLVEGGVKITSVNVGGMAFRQGKTQVNNAVSVDEKDIEAFKKLNARGIELEVRKVSTDPKLKMMDLISKIDK
# B2: Regulatory protein cro wild type, P03040 (protein)
# chain: MEQRITLKDYAMRFGQTKTAKDLGVYQSAINKAIHAGRKIFLTINADGSVYAEEVKPFPSNKKTTA
# B3: Tryptophan synthase alpha chain wild type, P0A877 (protein)
# chain: MERYESLFAQLKERKEGAFVPFVTLGDPGIEQSLKIIDTLIEAGADALELGIPFSDPLADGPTIQNATLRAFAAGVTPAQCFEMLALIRQKHPTIPIGLLMYANLVFNKGIDEFYAQCEKVGVDSVLVADVPVEESAPFRQAALRHNVAPIFICPPNADDDLLRQIASYGRGYTYLLSRAGVTGAENRAALPLNHLVAKLKEYNAAPPLQGFGISAPDQVKAAIDAGAAGAISGSAIVKIIEQHINEPEKMLAALKVFVQPMKAATRS
# B4: Peptidyl-prolyl cis-trans isomerase B wild type, P23869 (protein)
# chain: MVTFHTNHGDIVIKTFDDKAPETVKNFLDYCREGFYNNTIFHRVINGFMIQGGGFEPGMKQKATKEPIKNEANNGLKNTRGTLAMARTQAPHSATAQFFINVVDNDFLNFSGESLQGWGYCVFAEVVDGMDVVDKIKGVATGRSGMHQDVPKEDVIIESVTVSE
# B5: L-arabinose-binding periplasmic protein wild type, P02924 (protein)
# chain: MHKFTKALAAIGLAAVMSQSAMAENLKLGFLVKQPEEPWFQTEWKFADKAGKDLGFEVIKIAVPDGEKTLNAIDSLAASGAKGFVICTPDPKLGSAIVAKARGYDMKVIAVDDQFVNAKGKPMDTVPLVMMAATKIGERQGQELYKEMQKRGWDVKESAVMAITANELDTARRRTTGSMDALKAAGFPEKQIYQVPTKSNDIPGAFDAANSMLVQHPEVKHWLIVGMNDSTVLGGVRATEGQGFKAADIIGIGINGVDAVSELSKAQATGFYGSLLPSPDVHGYKSSEMLYNWVAKDVEPPKFTEVTDVVLITRDNFKEELEKKGLGGK
# B6: Regulatory protein rop wild type, P03051 (protein)
# chain: MTKQEKTALNMARFIRSQTLTLLEKLNELDADEQADICESLHDHADELYRSCLARFGDDGENL
# Details: whole UniProt chain shown
# [1] = Escherichia coli (strain K12), pH 7, 25 °C, Thermal, DSC, tetra-borate 1 mM, reversible: yes(70-95%)
# [2] = Escherichia coli (strain K12), pH 7, Thermal, CD, tetra-borate 1 mM, reversible: yes(70-95%)
# [3] = Escherichia coli (strain K12), pH 7, Thermal, DSC, tetra-borate 1 mM, reversible: yes(70-95%)
# [4] = Escherichia coli (strain K12), pH 7.8, 25 °C, Urea, CD, Potassium phosphate 10 mM, transition: 3
# [5] = Escherichia coli (strain K12), pH 7.8, 25 °C, Urea, CD, Potassium phosphate 10 mM
# [6] = Escherichia coli (strain K12), pH 9.3, 25 °C, Thermal, DSC, tetra-borate 1 mM, reversible: yes(70-95%)
# [7] = Escherichia coli (strain K12), pH 9.3, Thermal, CD, tetra-borate 1 mM, reversible: yes(70-95%)
# [8] = Escherichia coli (strain K12), pH 9.3, Thermal, DSC, tetra-borate 1 mM, reversible: yes(70-95%)
# [9] = Escherichia coli (strain K12), pH 7.4, Thermal, DSC, phosphate 5 mM, reversible: yes
# [10] = Escherichia coli, pH 6, 19 °C, GdnHCl, CD, sodium phosphate 10 mM, sodium sulphate 10 mM, reversible: yes
# [11] = Escherichia coli, pH 6, 25 °C, GdnHCl, CD, sodium phosphate 10 mM, sodium sulphate 10 mM, reversible: yes
# [12] = Escherichia coli, pH 6, 25 °C, Thermal, DSC, Sodium phosphate 10 mM, Na2SO4 10 mM, reversible: yes
# [13] = Escherichia coli, pH 6, Thermal, DSC, Sodium phosphate 10 mM, Na2SO4 10 mM, reversible: yes
protein,measurement,setting,value
B1,unfolding free energy,"Escherichia coli (strain K12), pH 7.4, 22 °C, GdnHCl, CD, Sodium phosphate 20 mM, reversible: yes",6.5 kcal/mol
same,unfolding enthalpy (van 't Hoff),"Escherichia coli (strain K12), pH 7.4, Thermal, CD, Sodium phosphate 20 mM, reversible: yes",135 kcal/mol
B2,Tm,"Escherichia phage lambda, pH 3, Thermal, CD, Potassium phosphate 10 mM, KCl 0.1 M, reversible: yes",40 °C
same,Tm,"Escherichia phage lambda, pH 7, Thermal, CD, Potassium phosphate 10 mM, KCl 0.1 M, reversible: yes",39.5 °C
B3,unfolding free energy,"Escherichia coli (strain K12), pH 7, 25 °C, GdnHCl, CD, Potassium phosphate 0.01 M, reversible: yes",9.3 kcal/mol
same,unfolding free energy,"Escherichia coli (strain K12), pH 7, 25 °C, Thermal, CD, tetra-borate 1 mM, reversible: yes(70-95%)",6.7 kcal/mol
same,unfolding enthalpy (calorimetric),[1],23.2 kcal/mol
same,unfolding free energy,[1],8.4 kcal/mol
same,unfolding free energy,"Escherichia coli (strain K12), pH 7, 25.8 °C, GdnHCl, CD, Potassium phosphate 0.01 M, reversible: yes",8.8 kcal/mol
same,Tm,[2],61.2 °C
same,heat capacity change of unfolding,[2],2.45 kcal/mol/K
same,unfolding enthalpy (van 't Hoff),[2],19.7 kcal/mol
same,Tm,[3],62.4 °C
same,heat capacity change of unfolding,[3],2.87 kcal/mol/K
same,denaturant m value,[4],2.9 kcal/mol/M and 1.3 kcal/mol/M
same,unfolding free energy,[4],7.9 kcal/mol and 5.4 kcal/mol
same,denaturant m value,[5],2.23 kcal/mol/M
same,unfolding free energy,[5],5.91 kcal/mol
same,unfolding free energy,"Escherichia coli (strain K12), pH 9.3, 25 °C, Thermal, CD, tetra-borate 1 mM, reversible: yes(70-95%)",3.9 kcal/mol
same,unfolding enthalpy (calorimetric),[6],23.2 kcal/mol
same,unfolding free energy,[6],5.8 kcal/mol
same,Tm,[7],50.4 °C
same,heat capacity change of unfolding,[7],2.45 kcal/mol/K
same,unfolding enthalpy (van 't Hoff),[7],19.7 kcal/mol
same,Tm,[8],54.3 °C
same,heat capacity change of unfolding,[8],2.87 kcal/mol/K
B4,unfolding free energy,"Escherichia coli (strain K12), pH 8, 15 °C, NaCl, Fluorescence, Tris-HCl 0.1 M, NaCl 2.0 M, reversible: yes",2.51 kcal/mol
B5,Tm,[9],53.6 °C
same,heat capacity change of unfolding,[9],3.16 kcal/mol/K
same,unfolding enthalpy (calorimetric),[9],152 kcal/mol
B6,denaturant m value,[10],2.75 kcal/mol/M
same,denaturant midpoint (higher = more stable),[10],3.3 M
same,unfolding free energy,[10],16 kcal/mol
same,denaturant m value,[11],3.06 kcal/mol/M
same,denaturant midpoint (higher = more stable),[11],3.23 M
same,unfolding free energy,[11],16.9 kcal/mol
same,heat capacity change of unfolding,[12],2.46 kcal/mol/K
same,unfolding free energy,[12],17.1 kcal/mol
same,Tm,[13],71 °C
same,heat capacity change of unfolding,[13],2.46 kcal/mol/K
same,unfolding enthalpy (calorimetric),[13],139 kcal/mol
same,unfolding enthalpy (van 't Hoff),[13],130 kcal/mol
same,Tm,"Escherichia coli, pH 7, Thermal, CD, Sodium phosphate 100 mM, NaCl 200 mM",64 °C
